Reference: patent US20200115430A1 (I2O THERAPEUTICS, published 2020)
Starred links: 1 amine or outer side, 2 acyl side, 3 side chain; linkers in the order of their positions; H or OH if unused. Positions of bridges follow the written chain, without caps; N, C: chain ends. Non-standard residues stand in square brackets, D forms with d. Groups on a side chain read outwards from the residue. Primed or numbered codes have the meaning given here. No end group written: not given here. *: point of attachment. dpeg″ = —[CO(CH2)O(CH2)2O(CH2)NH]— spacer unit, O=C(COCCOCN[*:1])[*:2]; C20 diacid = O=C(O)CCCCCCCCCCCCCCCCCCC(=O)*; C18 diacid = O=C(O)CCCCCCCCCCCCCCCCC(=O)*; γGlu = O=C(O)[C@H](CCC(=O)[*:2])N[*:1]; Stearoyl = CCCCCCCCCCCCCCCCCC(=O)*; Palmitoyl = CCCCCCCCCCCCCCCC(=O)*

T1: human amylin 3 receptor (human, UniProt P30988 25-474; O60896 24-148)
T1 sequence (looked up) 1: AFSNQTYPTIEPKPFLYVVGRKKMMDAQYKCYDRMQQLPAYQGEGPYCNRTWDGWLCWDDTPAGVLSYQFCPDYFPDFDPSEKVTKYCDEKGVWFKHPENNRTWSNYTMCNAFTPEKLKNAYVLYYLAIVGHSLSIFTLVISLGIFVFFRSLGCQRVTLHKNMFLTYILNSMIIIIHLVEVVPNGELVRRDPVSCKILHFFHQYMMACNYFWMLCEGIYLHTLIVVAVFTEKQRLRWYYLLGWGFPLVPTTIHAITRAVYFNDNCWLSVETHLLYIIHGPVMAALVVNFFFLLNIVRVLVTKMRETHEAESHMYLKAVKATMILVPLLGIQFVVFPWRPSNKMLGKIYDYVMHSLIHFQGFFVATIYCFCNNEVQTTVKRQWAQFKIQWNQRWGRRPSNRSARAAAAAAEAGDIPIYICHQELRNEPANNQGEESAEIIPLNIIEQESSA
T1 sequence (looked up) 2: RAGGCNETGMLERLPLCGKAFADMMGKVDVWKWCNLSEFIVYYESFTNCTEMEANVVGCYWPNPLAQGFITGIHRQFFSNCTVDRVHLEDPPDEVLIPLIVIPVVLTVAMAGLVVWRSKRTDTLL

T2: human calcitonin receptor (human, UniProt P30988 25-474)
T2 sequence (looked up): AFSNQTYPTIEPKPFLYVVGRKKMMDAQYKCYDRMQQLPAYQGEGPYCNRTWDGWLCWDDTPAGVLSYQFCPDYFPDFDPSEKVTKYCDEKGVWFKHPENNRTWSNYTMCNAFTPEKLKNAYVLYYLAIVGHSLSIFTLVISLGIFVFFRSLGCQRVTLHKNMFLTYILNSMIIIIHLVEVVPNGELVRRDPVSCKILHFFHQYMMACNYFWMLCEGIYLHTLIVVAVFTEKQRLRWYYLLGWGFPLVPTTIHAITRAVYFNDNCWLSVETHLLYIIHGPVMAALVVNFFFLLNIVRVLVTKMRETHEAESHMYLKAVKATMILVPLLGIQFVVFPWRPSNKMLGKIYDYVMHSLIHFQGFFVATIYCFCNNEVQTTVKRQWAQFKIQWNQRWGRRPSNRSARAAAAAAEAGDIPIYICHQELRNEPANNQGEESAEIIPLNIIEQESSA


What was measured:
human amylin 3 receptor = target: T1, human amylin 3 receptor; experiment: cell-based or functional assay
[1] = target: T2, human calcitonin receptor; experiment: cell-based or functional assay

Binder | pEC50 (cAMP accumulation), 0% HSA (human amylin 3 receptor) [pEC50] | pEC50 (cAMP accumulation), 0.1% HSA (human amylin 3 receptor) [pEC50] | pEC50 (cAMP accumulation), 4% HSA (human amylin 3 receptor) [pEC50] | pEC50 (cAMP accumulation), 0% HSA [1] [pEC50] | pEC50 (cAMP accumulation), 0.1% HSA [1] [pEC50] | pEC50 (cAMP accumulation), 4% HSA [1] [pEC50]
K([γGlu-C20 diacid])CNTSTCATQRLANELHKSSNNFGPILPPTKVGSETY-NH2 (disulfide 2-7; N-terminus assumed; SMILES CC[C@H](C)[C@H](NC(=O)[C@@H]1CCCN1C(=O)CNC(=O)[C@H](Cc1ccccc1)NC(=O)[C@H](CC(N)=O)NC(=O)[C@H](CC(N)=O)NC(=O)[C@H](CO)NC(=O)[C@H](CO)NC(=O)[C@H](CCCCN)NC(=O)[C@H](Cc1c[nH]cn1)NC(=O)[C@H](CC(C)C)NC(=O)[C@H](CCC(=O)O)NC(=O)[C@H](CC(N)=O)NC(=O)[C@H](C)NC(=O)[C@H](CC(C)C)NC(=O)[C@H](CCCNC(=N)N)NC(=O)[C@H](CCC(N)=O)NC(=O)[C@@H](NC(=O)[C@H](C)NC(=O)[C@@H]1CSSC[C@H](NC(=O)[C@@H](N)CCCCNC(=O)CC[C@H](NC(=O)CCCCCCCCCCCCCCCCCCC(=O)O)C(=O)O)C(=O)N[C@@H](CC(N)=O)C(=O)N[C@@H]([C@@H](C)O)C(=O)N[C@@H](CO)C(=O)N[C@@H]([C@@H](C)O)C(=O)N1)[C@@H](C)O)C(=O)N[C@@H](CC(C)C)C(=O)N1CCC[C@H]1C(=O)N1CCC[C@H]1C(=O)N[C@H](C(=O)N[C@@H](CCCCN)C(=O)N[C@H](C(=O)NCC(=O)N[C@@H](CO)C(=O)N[C@@H](CCC(=O)O)C(=O)N[C@H](C(=O)N[C@@H](Cc1ccc(O)cc1)C(N)=O)[C@@H](C)O)C(C)C)[C@@H](C)O) [Compound A119] | 11.9 | 10.2 | 8.5 | 11.2 | 9.5 | 7.9
K([dpeg″-dpeg″-γGlu-C18 diacid])CNTSTCATQRLANELHKSSNNFGPILPPTKVGSETY-NH2 (disulfide 2-7) [Compound A113] | 12.3 | 10.6 | 9 | 11.3 | 9.7 | 8.1
SCNTSTCATQRLANE[dK]([γGlu-γGlu-Palmitoyl])HKSSNNFGPILPPTKVGSETY-NH2 (disulfide 2-7; N-terminus assumed; SMILES CCCCCCCCCCCCCCCC(=O)N[C@@H](CCC(=O)N[C@@H](CCC(=O)NCCCC[C@@H](NC(=O)[C@H](CCC(=O)O)NC(=O)[C@H](CC(N)=O)NC(=O)[C@H](C)NC(=O)[C@H](CC(C)C)NC(=O)[C@H](CCCNC(=N)N)NC(=O)[C@H](CCC(N)=O)NC(=O)[C@@H](NC(=O)[C@H](C)NC(=O)[C@@H]1CSSC[C@H](NC(=O)[C@@H](N)CO)C(=O)N[C@@H](CC(N)=O)C(=O)N[C@@H]([C@@H](C)O)C(=O)N[C@@H](CO)C(=O)N[C@@H]([C@@H](C)O)C(=O)N1)[C@@H](C)O)C(=O)N[C@@H](Cc1c[nH]cn1)C(=O)N[C@@H](CCCCN)C(=O)N[C@@H](CO)C(=O)N[C@@H](CO)C(=O)N[C@@H](CC(N)=O)C(=O)N[C@@H](CC(N)=O)C(=O)N[C@@H](Cc1ccccc1)C(=O)NCC(=O)N1CCC[C@H]1C(=O)N[C@H](C(=O)N[C@@H](CC(C)C)C(=O)N1CCC[C@H]1C(=O)N1CCC[C@H]1C(=O)N[C@H](C(=O)N[C@@H](CCCCN)C(=O)N[C@H](C(=O)NCC(=O)N[C@@H](CO)C(=O)N[C@@H](CCC(=O)O)C(=O)N[C@H](C(=O)N[C@@H](Cc1ccc(O)cc1)C(N)=O)[C@@H](C)O)C(C)C)[C@@H](C)O)[C@@H](C)CC)C(=O)O)C(=O)O) [Compound A27] | 12.8 | 11.8 | 10.4 | 11.9 | 10.6 | 9
SCNTSTCATQRLANELK([dpeg″-dpeg″-γGlu-C18 diacid])KSSNNFGPILPPTKVGSETY-NH2 (disulfide 2-7; N-terminus assumed; SMILES CC[C@H](C)[C@H](NC(=O)[C@@H]1CCCN1C(=O)CNC(=O)[C@H](Cc1ccccc1)NC(=O)[C@H](CC(N)=O)NC(=O)[C@H](CC(N)=O)NC(=O)[C@H](CO)NC(=O)[C@H](CO)NC(=O)[C@H](CCCCN)NC(=O)[C@H](CCCCNC(=O)COCCOCNC(=O)COCCOCNC(=O)CC[C@H](NC(=O)CCCCCCCCCCCCCCCCC(=O)O)C(=O)O)NC(=O)[C@H](CC(C)C)NC(=O)[C@H](CCC(=O)O)NC(=O)[C@H](CC(N)=O)NC(=O)[C@H](C)NC(=O)[C@H](CC(C)C)NC(=O)[C@H](CCCNC(=N)N)NC(=O)[C@H](CCC(N)=O)NC(=O)[C@@H](NC(=O)[C@H](C)NC(=O)[C@@H]1CSSC[C@H](NC(=O)[C@@H](N)CO)C(=O)N[C@@H](CC(N)=O)C(=O)N[C@@H]([C@@H](C)O)C(=O)N[C@@H](CO)C(=O)N[C@@H]([C@@H](C)O)C(=O)N1)[C@@H](C)O)C(=O)N[C@@H](CC(C)C)C(=O)N1CCC[C@H]1C(=O)N1CCC[C@H]1C(=O)N[C@H](C(=O)N[C@@H](CCCCN)C(=O)N[C@H](C(=O)NCC(=O)N[C@@H](CO)C(=O)N[C@@H](CCC(=O)O)C(=O)N[C@H](C(=O)N[C@@H](Cc1ccc(O)cc1)C(N)=O)[C@@H](C)O)C(C)C)[C@@H](C)O) [Compound A99] | 10.9 | 9.5 | 8.6 | 10.4 | 8.5 | 7.6
SCNTSTCATQRLANE[dK]([γGlu-γGlu-γGlu-Stearoyl])HKSSNNFGPILPPTKVGSETY-NH2 (disulfide 2-7; N-terminus assumed; SMILES CCCCCCCCCCCCCCCCCC(=O)N[C@@H](CCC(=O)N[C@@H](CCC(=O)N[C@@H](CCC(=O)NCCCC[C@@H](NC(=O)[C@H](CCC(=O)O)NC(=O)[C@H](CC(N)=O)NC(=O)[C@H](C)NC(=O)[C@H](CC(C)C)NC(=O)[C@H](CCCNC(=N)N)NC(=O)[C@H](CCC(N)=O)NC(=O)[C@@H](NC(=O)[C@H](C)NC(=O)[C@@H]1CSSC[C@H](NC(=O)[C@@H](N)CO)C(=O)N[C@@H](CC(N)=O)C(=O)N[C@@H]([C@@H](C)O)C(=O)N[C@@H](CO)C(=O)N[C@@H]([C@@H](C)O)C(=O)N1)[C@@H](C)O)C(=O)N[C@@H](Cc1c[nH]cn1)C(=O)N[C@@H](CCCCN)C(=O)N[C@@H](CO)C(=O)N[C@@H](CO)C(=O)N[C@@H](CC(N)=O)C(=O)N[C@@H](CC(N)=O)C(=O)N[C@@H](Cc1ccccc1)C(=O)NCC(=O)N1CCC[C@H]1C(=O)N[C@H](C(=O)N[C@@H](CC(C)C)C(=O)N1CCC[C@H]1C(=O)N1CCC[C@H]1C(=O)N[C@H](C(=O)N[C@@H](CCCCN)C(=O)N[C@H](C(=O)NCC(=O)N[C@@H](CO)C(=O)N[C@@H](CCC(=O)O)C(=O)N[C@H](C(=O)N[C@@H](Cc1ccc(O)cc1)C(N)=O)[C@@H](C)O)C(C)C)[C@@H](C)O)[C@@H](C)CC)C(=O)O)C(=O)O)C(=O)O) [Compound A13] | 12.4 | 11.4 | 10.1 | 11.6 | 10.3 | 8.5
SCNTSTCATQRLAN[dK]([γGlu-γGlu-dpeg″-C20 diacid])LHKSSNNFGPILPPTKVGSETY-NH2 (disulfide 2-7; N-terminus assumed; SMILES CC[C@H](C)[C@H](NC(=O)[C@@H]1CCCN1C(=O)CNC(=O)[C@H](Cc1ccccc1)NC(=O)[C@H](CC(N)=O)NC(=O)[C@H](CC(N)=O)NC(=O)[C@H](CO)NC(=O)[C@H](CO)NC(=O)[C@H](CCCCN)NC(=O)[C@H](Cc1c[nH]cn1)NC(=O)[C@H](CC(C)C)NC(=O)[C@@H](CCCCNC(=O)CC[C@H](NC(=O)CC[C@H](NC(=O)COCCOCNC(=O)CCCCCCCCCCCCCCCCCCC(=O)O)C(=O)O)C(=O)O)NC(=O)[C@H](CC(N)=O)NC(=O)[C@H](C)NC(=O)[C@H](CC(C)C)NC(=O)[C@H](CCCNC(=N)N)NC(=O)[C@H](CCC(N)=O)NC(=O)[C@@H](NC(=O)[C@H](C)NC(=O)[C@@H]1CSSC[C@H](NC(=O)[C@@H](N)CO)C(=O)N[C@@H](CC(N)=O)C(=O)N[C@@H]([C@@H](C)O)C(=O)N[C@@H](CO)C(=O)N[C@@H]([C@@H](C)O)C(=O)N1)[C@@H](C)O)C(=O)N[C@@H](CC(C)C)C(=O)N1CCC[C@H]1C(=O)N1CCC[C@H]1C(=O)N[C@H](C(=O)N[C@@H](CCCCN)C(=O)N[C@H](C(=O)NCC(=O)N[C@@H](CO)C(=O)N[C@@H](CCC(=O)O)C(=O)N[C@H](C(=O)N[C@@H](Cc1ccc(O)cc1)C(N)=O)[C@@H](C)O)C(C)C)[C@@H](C)O) [Compound A96] | 11.7 | 9.7 | 8.5 | 10.8 | 8.5 | 8
SCNTSTCATQRLAN[dK]([γGlu-γGlu-dpeg″-γGlu-C20 diacid])LHKSSNNFGPILPPTKVGSETY-NH2 (disulfide 2-7) [Compound A100] | 11.1 | 8.8 | 7.6 | 10.5 | 8.1 | 7.1
